Results reported in patent publication US20230151072A1 (XILIO DEVELOPMENT, published 2023).

Target: T1, CD122-Fc (UniProt P14784 27-240, limits assumed)
T1 construct: Analyte flowed over the chip in SPR at 500, 250, 125, 62.5 and 31.25 nM; also called Fc-CD122; IL-2Rbeta
T1 sequence (looked up): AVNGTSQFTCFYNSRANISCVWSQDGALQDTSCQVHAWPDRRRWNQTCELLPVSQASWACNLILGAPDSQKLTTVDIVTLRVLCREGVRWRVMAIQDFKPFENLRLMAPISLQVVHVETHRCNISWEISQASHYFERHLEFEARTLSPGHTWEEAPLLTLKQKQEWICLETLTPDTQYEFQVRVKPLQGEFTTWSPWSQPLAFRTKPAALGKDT
Experiment: SPR, protease-cleaved construct amine-coupled on chip, CD122-Fc flowed
Description: For SPR studies testing binding of masked and non-masked IL-2 polypeptide constructs, Reichert Carboxymethyl Dextran Hydrogel Surface Sensor Chips were coated and immobilized with the construct of interest (e.g., a masked IL-2 polypeptide construct or non-masked IL-2 polypeptide construct) at 30 ug/ml in 10 mM Sodium Acetate, pH 5.0 via amine coupling with EDC and NHS. […] Using a Reichert 4Channel SPR, dilutions of CD25 or CD122 were flowed over the clips with the immobilized construct to determine the on rate at 25 degrees C. At equilibrium (approximately 3 minutes), the flow buffer was changed to PBST, to determine the off rates over 6 minutes. Between each run the chip was regenerated with 10 mM glycine, pH 2.0.
For some structures, when applicable, the KD was determined for the construct with or without having been previously cleaved by a protease.

- Kd: 175 nM
B1: AK168 after protease cleavage (ligand)
chain: LYHPSGPAPTSSSTKKTQLQLEHLLLDLQMILNGINNYKNPKLTAMLTAKFAMPKKATELKHLQCLEEALKPLEEVLNLAQSKNFHLRPRDLISNINVIVLELKGSETTFMCEYADETATIVEFLNRWITFAQSIISTLT
notes: also called AK168 Cleavage Product
